From patent US20070150973A1

Experiments:
[1] = biological target: FKBP×3-VP16 fusion protein (human; Herpes Simplex Virus) (UniProt P62942); assay: cell-based or functional assay
[2] = biological target: FKBP×3-p65 fusion protein (human) (UniProt P62942); assay: cell-based or functional assay

## ZFHD1-FKBP×3 fusion protein (from UniProt P08046 333-390; P14859 378-439; P62942 2-108; P62942 2-108; P62942 2-108)
[1]
  FK1012 concentration at peak SEAP activation: 100 nM
[2]
  FK1012 concentration at peak SEAP activation: 100 nM
